Here are results for 26 molecules from PMC3472128 (Structure (London, England : 1993), 2012).

Where a chain is given by its changes, count along the chain named. Names and notes keep the numbering of the source. Values joined by “and” are separate entries in the source; they are usually repeats but may differ in a detail not shown here. Equal values may be shown once.

B1: Smurf1 WW1-WW2 pair (domain or fragment)
chain: SPELPEGYEQRTTVQGQVYFLHTQTGVSTWHDPRIPRDLNSVNCDELGPLPPGWEVRSTVSGRIYFVDHNNRTTQFTDPRLH
B2: Smurf2 WW2-WW3 pair (domain or fragment)
chain: PPDLPEGYEQRTTQQGQVYFLHTQTGVSTWHDPRVPRDLSNINCEELGPLPPGWEIRNTATGRVYFVDHNNRTTQFTDPRLSAN
B3: Nedd4L WW2 domain Lys378/Arg380 to Glu (domain or fragment)
chain: not shown
B4: Nedd4L WW2 domain Arg380Glu (domain or fragment)
chain: not shown
B5: Nedd4L WW2 domain Lys378Glu (domain or fragment)
chain: not shown
B6: Smurf1 WW1-WW2 pair Gln247 and Gln249 to Glu (domain or fragment)
chain: B1 chain with Q15E, Q17E
B7: Smurf1 WW1-WW2 pair Arg243Glu (domain or fragment)
chain: B1 chain with R11E
B8: Smurf1 WW1-WW2 pair Arg243Ala (domain or fragment)
chain: B1 chain with R11A
B9: Smurf1 WW1-WW2 pair Gln249Glu (domain or fragment)
chain: B1 chain with Q17E
B10: YAP WW1-WW2 pair (domain or fragment)
chain: SSFEIPDDVPLPAGWEMAKTSSGQRYFLNHIDQTTTWQDPRKAMLSQMNVTAPTSPPVQQNMMNSASGPLPDGWEQAMTQDGEIYYINHKNKTTSWLDPRLDPR
B11: Nedd4L WW2 domain (364-403) (domain or fragment)
chain: not shown
B12: Nedd4L WW2-WW3 pair (domain or fragment)
chain: TPGLPSGWEERKDAKGRTYYVNHNNRTTTWTRPIMQLAEDGASGSATNSNNHLIEPQIRRPRSLSSPTVTLSAPLEGAKDSPVRRAVKDTLSNPQSPQPSPYNSPKPQHKVTQSFLPPGWEMRIAPNGRPFFIDHNTKTTTWEDPRL
B13: Nedd4L WW3-WW4 pair (domain or fragment)
chain: SFLPPGWEMRIAPNGRPFFIDHNTKTTTWEDPRLKFPVHMRSKTSLNPNDLGPLPPGWEERIHLDGRTFYIDHNSKITQWEDPRL
B14: Nedd4L WW1 domain (domain or fragment)
chain: not shown
B15: Smurf2 WW3 domain (297-333) (domain or fragment)
chain: not shown
B16: Nedd4L WW1-WW2 pair (domain or fragment)
chain: not shown

Usually Kd stands for the equilibrium constant for the complex coming apart. Low values mean a tighter complex, high ones a looser complex. As a reminder, the stoichiometry N is the number of molecules, sites or subunits per partner or assembly.

One data set concerns the target T1, Smad7 PY peptide Ac-ELESPPPPYSRYPMD-NH2 (203-217) (human).
T1 peptide: Ac-ELESPPPPYSRYPMD-NH2
Put plainly: ITC.
For the molecule B1, binding was put at a Kd of 700 ± 300 nM.
B2: the Kd came out at 700 ± 300 nM.

The target of the next data set is T1, Smad7 PY peptide Ac-ELESPPPPYSRYPMD-NH2 …. Put plainly: ITC. This is another data set of the same source.
As for B1, the Kd was 5 ± 0.3 µM.
Same read-out and setting: in the case of B2 it was 5 ± 0.3 µM.

Another data set has the same target. Nature of the data set: ITC. The source holds these as a separate data set. For orientation: ITC needs no label: the signal is the heat of the interaction.
With B3, binding was characterised by a dissociation constant (Kd) of 27.3 ± 2.2 µM.
The same measure, in the same setting: in the case of B4 it was 15.4 ± 3.5 µM; in that of B5, 23.5 ± 1.5 µM.
With SASGPLPDGWEQAMTQQGQIYYINHKNKTTSWLDPRLDPR (domain or fragment, human, UniProt P46937 227-266, looked up) [YAP WW2 domain Asp243 and Glu245 to Glutamine], the “fold improvement of affinity against wild-type YAP WW2” value came out at 2 fold.
Consider B6, for which the “fold reduction of affinity against the wild-type WW1-WW2 pair” value was 3 fold.
On the same count and under the same terms, the result for B7 reads 10 fold.
The same measure, in the same setting: the result for B8 reads 3 fold.
The same measure, in the same setting: the result for B9 reads 3 fold.
As to SSFEIPDDVPLPAGWEMAKTSSGERYFLNHIDQTTTWQDPRKAM (domain or fragment, human, UniProt P46937 163-206, looked up) [YAP WW1 domain Q186E], the “fold reduction of affinity against wild-type YAP WW1” value was 2 fold.
DELGPLPPGWEVRSTVSGEIYFVDHNNRTTQFTDPRLH (domain or fragment, human, UniProt Q9HCE7-2 277-314, looked up) [Smurf1 WW2 domain Arg295Glu] yielded a Kd of 48.6 ± 6.4 µM.
The same measure, in the same setting: the result for GPLPPGWEIRNTATGEVYFVDHNNRTTQFTDPRLSAN (domain or fragment, human, UniProt Q9HAU4 297-333, looked up) [Smurf2 WW3 domain R312E] reads 34.2 ± 1.6 µM.

Another data set concerns the molecule itself. Nature of the data set: native MS.
For the molecule B2, the “stoichiometry N” value is 2 and 3.

A further data set concerns the molecule itself. Nature of the data set: NMR.
With SPELPEGYEQRTTVQGQVYFLHTQTGVSTWHDPRIPRD (domain or fragment, human, UniProt Q9HCE7-2 233-270, looked up) [Smurf1 WW1 domain (residues 233-270)], the “stoichiometry N” value was determined as 2.

Another data set concerns the target T1, Smad7 PY peptide Ac-ELESPPPPYSRYPMD-NH2 …. Nature of the data set: ITC. This is another data set of the same source.
Turning to B10, the Kd is 9.8 ± 0.9 µM and the “stoichiometry N” value worked out at 1.
For B11, the “stoichiometry N” value stood at 1.
Consider B12, for which the “stoichiometry N” value was 2 equivalents of peptide per protein.
For SASGPLPDGWEQAMTQDGEIYYINHKNKTTSWLDPRLDPR (domain or fragment, human, UniProt P46937 227-266, looked up) [YAP WW2 domain (residues 227-266)], the “fold weaker dissociation constant than YAP WW1” value turned out to be 9 fold.
For B13, the “stoichiometry N” value worked out at 1.
In the case of GPLPPGWEERIHLDGRTFYIDHNSKITQWEDPRL (domain or fragment) [Nedd4L WW4 domain], the “stoichiometry N” value amounted to 1.
In the case of B1, the Kd stood at 1.7 ± 0.3 µM and the “stoichiometry N” value amounted to 0.7.
As to SSFEIPDDVPLPAGWEMAKTSSGQRYFLNHIDQTTTWQDPRKAM (domain or fragment, human, UniProt P46937 163-206, looked up) [YAP WW1 domain (residues 163-206)], the Kd came out at 6.9 ± 0.28 µM.
Take DELGPLPPGWEVRSTVSGRIYFVDHNNRTTQFTDPRLH (domain or fragment, human, UniProt Q9HCE7-2 277-314, looked up) [Smurf1 WW2 domain (residues 277-314)]: the Kd was 4.1 ± 0.6 µM and the “stoichiometry N” value was 1.
Consider B14, for which the “stoichiometry N” value is 1.
On to B2, for which the affinity, expressed as Kd, was 1.7 ± 0.3 µM.
Consider B15, for which binding was put at a Kd of 4.1 µM and the “stoichiometry N” value stood at 1.
With SFLPPGWEMRIAPNGRPFFIDHNTKTTTWEDPRL (domain or fragment) [Nedd4L WW3 domain], the “stoichiometry N” value is 1.
Take B16: the “stoichiometry N” value came to 1.
